Substrate: Nc1nc2c(ncn2[C@@H]2O[C@H](COP(=O)(O)OP(=O)(O)OP(=O)(O)O)[C@@H](O)[C@H]2O)c(=O)[nH]1
Test: radioactive GTPase assay, thin-layer chromatography, Lineweaver-Burk
Type: biochemical, Saccharomyces cerevisiae
Conditions: pH 7.4, 37 °C, 5 mM MgCl2, 5 mM KCl, 25 mM HEPES, 100 mM sucrose, 60 min, labelled compound [α-32P]GTP 0.1-1.2 μM, no GAP, GEF or Gtr2

B1: Gtr1 (Saccharomyces cerevisiae S288C) (protein)
chain: MSSNNRKKLLLMGRSGSGKSSMRSIIFSNYSAFDTRRLGATIDVEHSHLRFLGNMTLNLWDCGGQDVFMENYFTKQKDHIFQMVQVLIHVFDVESTEVLKDIEIFAKALKQLRKYSPDAKIFVLLHKMDLVQLDKREELFQIMMKNLSETSSEFGFPNLIGFPTSIWDESLYKAWSQIVCSLIPNMSNHQSNLKKFKEIMNALEIILFERTTFLVICSSNGENSNENHDSSDNNNVLLDPKRFEKISNIMKNFKQSCTKLKSGFKTLILNNNIYVSELSSNMVCFIVLKDMNIPQELVLENIKKAKEFFQ
notes: full-length, N-terminal His6 tag (pET28a+ named in acknowledgements), expressed in E. coli, Ni-NTA purified, 36 kDa, monomer (without Gtr2); printed PDB id is of the Gtr1-Gtr2 complex of others
  Km: 1.0 µM
  kcat: 6.7e-05 s⁻¹

— article PMC3477016, “The intrinsic GTPase activity of the Gtr1 protein from Saccharomyces cerevisiae” (BMC Biochemistry, 2012)
